From paper PMC5740062, “CRTC1 mediates preferential transcription at neuronal activity-regulated CRE/TATA promoters” (Scientific Reports, 2017)

Target: T1, cAMP-responsive element-binding protein (CREB) (mouse (endogenous in primary cortical …, UniProt Q01147-1 1-341, phosphoserine at 133 (blotted as pCREB after FSK/KCl)))
T1 construct: Precipitated with an anti-CREB antibody and detected on blots as phosphorylated CREB (Ser133); also called pCREB; endogenous CREB; source: endogenous, mouse primary cortical neurons (12 DIV), formaldehyde-crosslinked, in lysate
Assay: co-IP; endogenous proteins; cortical neurons (12 DIV) treated with vehicle or FSK/KCl, crosslinked with 1% formaldehyde, lysed by sonication (50 mM Tris-HCl pH 8, 1% Triton X-100, 100 mM NaCl, 1 mM MgCl2); 2 mg protein immunoprecipitated overnight at 4 °C with anti-CREB or anti-CRTC1, Dynabeads protein G; blots of CRTC1 and pCREB; percent normalised to the maximum immunoprecipitation with the specific antibody in …
Conditions: partners not purified

T1 sequence (Q01147 other isoform, or with tags, fused parts or gaps): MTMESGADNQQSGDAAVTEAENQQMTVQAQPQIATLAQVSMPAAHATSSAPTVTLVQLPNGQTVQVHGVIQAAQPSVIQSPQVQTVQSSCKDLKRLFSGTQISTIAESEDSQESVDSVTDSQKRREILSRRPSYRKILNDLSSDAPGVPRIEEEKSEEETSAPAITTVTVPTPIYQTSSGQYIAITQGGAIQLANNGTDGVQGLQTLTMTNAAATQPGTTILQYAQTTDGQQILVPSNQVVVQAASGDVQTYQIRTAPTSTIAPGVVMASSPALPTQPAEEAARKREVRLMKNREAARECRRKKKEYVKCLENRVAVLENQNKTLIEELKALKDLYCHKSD

percent of CRTC1 co-immunoprecipitated with anti-CREB (FSK/KCl), relative to its immunoprecipitation with anti-CRTC1: ~37%
B1: CREB-regulated transcription coactivator-1 (CRTC1) (natural protein, UniProt Q68ED7 1-630, looked up)
chain: MATSNNPRKFSEKIALHNQKQAEETAAFEEVMKDLSLTRAARLQLQKSQYLQLGPSRGQYYGGSLPNVNQIGSSSVDLAFQTPFQSSGLDTSRTTRHHGLVDRVYRERGRLGSPHRRPLSVDKHGRQADSCPYGTVYLSPPADTSWRRTNSDSALHQSTMTPSQAESFTGGSQDAHQKRVLLLTVPGMEDTGAETDKTLSKQSWDSKKAGSRPKSCEVPGINIFPSADQENTTALIPATHNTGGSLPDLTNIHFPSPLPTPLDPEEPPFPALTSSSSTGSLAHLGVGGAGQGMNTPSSSPQHRPAVVSPLSLSTEARRQQAQQVSPTLSPLSPITQAVAMDALSLEQQLPYAFFTQTGSQQPPPQPQPPPPPPPVSQQQPPPPQVSVGLPQGGPLLPSASLTRGPQLPPLSVTVPSTLPQSPTENPGQSPMGIDATSAPALQYRTSAGSPATQSPTSPVSNQGFSPGSSPQHTSTLGSVFGDAYYEQQMTARQANALSRQLEQFNMMENAISSSSLYNPGSTLNYSQAAMMGLSGSHGGLQDPQQLGYTGHGGIPNIILTVTGESPPSLSKELSSTLAGVSDVSFDSDHQFPLDELKIDPLTLDGLHMLNDPDMVLADPATEDTFRMDRL
notes: also called endogenous CRTC1; source: endogenous, mouse primary cortical neurons (12 DIV), formaldehyde-crosslinked, in lysate
